± gives the uncertainty stated by the source.
Assay: self-splicing fitness, log relative to wild type (ln ratio); higher = more splicing; Tetrahymena group I intron in knt gene, E. coli kanamycin selection, DiMSum; sequences stand for … in CUCUCU…GGAGGGAAAAGUUAUCAGGCAUGCACCUGGUAGCUAGUCUUUAAACCAAUAGAUUGCAUCGGUUUAAAAGGCAAGACCGUCAAAUUGCGGGAAAGGGGUCAACAGCCGUUCAGUACCAAGUCUCAGGGGAAACUUUGAGAUGGCCUUGCAAAGGGUAUGGUAAUAAGCUGACGGACAUGGUCCUAACCACGCAGCCAAGUCCUAAGUCAACAGAUCUUCUGUUGAUAUGGAUGCAGUUCACAGACUAAAUGUCGGUCGGGGAAGAUGUAUUCUUCUCAUAAGAUAUAGUCGGACCUCUCCUUAAUGGGAGCUAGCGGAUGAAGUGAUGCAACACUGGAGCCGCUGGGAACUAAUUUGUAUGCGAAAGUAUAUUGAUUAGUUUUGGAGUACUCGUGGUCG
In short: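 Fitness was computed with DiMSum as the error-weighted combination of replicate fold changes, kanamycin versus none, each normalised to wild type. The library randomised all eight intron nucleotides of the P1ex region, with the intron placed in the knt kanamycin-resistance gene on pET-22b(+) in E. coli BL21(DE3). Six replicate transformations were grown overnight at 37°C or 30°C on LB agar with or without 25 μg/mL kanamycin, plus 100 μg/mL carbenicillin, 50 μM IPTG and 0.2% rhamnose. Pooled colonies were amplicon-sequenced on an Illumina HiSeq 2500.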

Sequence | self-splicing fitness (ln) (30 °C) | self-splicing fitness (ln) (37 °C)
CUGCAGCAAUAUUACGUGCA | -2.38 ± 0.13 | -0.522 ± 0.1
CUGCAGCAAUAUUACGUGGG | -4.18 ± 0.18 | -3 ± 0.13
CUGCAGCAAUAUUACGUUUC | -3.11 ± 0.14 | -3.1 ± 0.25
CUGGAGCAAUAUUACGAAAA | -2.86 ± 0.25 | -1.6 ± 0.22
CUGGAGCAAUAUUACGCCUU |  | -1.6 ± 0.43
CUGGAGCAAUAUUACGCGGU | -1.94 ± 0.1 | -2.46 ± 0.24
CUGGAGCAAUAUUACGCGUA |  | -2.81 ± 0.43
CUGGAGCAAUAUUACGCUAU | -3.45 ± 0.38 | -2.67 ± 0.38
CUGGAGCAAUAUUACGGCGU | -2.77 ± 0.18 | 
CUGGAGCAAUAUUACGGCUU | -4.3 ± 0.42 | -2.68 ± 0.33
CUGGAGCAAUAUUACGGUCU | -4.34 ± 0.32 | -2.38 ± 0.29
CUGGAGCAAUAUUACGGUUU | -2.21 ± 0.15 | -2.43 ± 0.26
CUGGAGCAAUAUUACGUCAU | -4.18 ± 0.25 | -3.19 ± 0.4
CUGGAGCAAUAUUACGUGCA | -3.46 ± 0.41 | 
CUGUAGCAAUAUUACGAACG | 0.0721 ± 0.084 | 0.403 ± 0.1
CUGUAGCAAUAUUACGAAGA |  | -2.29 ± 0.29
CUGUAGCAAUAUUACGAAGG | -1.83 ± 0.21 | -2.22 ± 0.3
CUGUAGCAAUAUUACGACGG | -2.64 ± 0.23 | -1.07 ± 0.42
CUGUAGCAAUAUUACGAUAA | -3.19 ± 0.38 | -1.72 ± 0.27
CUGUAGCAAUAUUACGAUUA | -2.74 ± 0.33 | -1.24 ± 0.4
CUGUAGCAAUAUUACGAUUG | -1.2 ± 0.23 | 0.185 ± 0.22
CUGUAGCAAUAUUACGCAAC |  | -2.99 ± 0.47
CUGUAGCAAUAUUACGCACG | -0.568 ± 0.12 | -0.0751 ± 0.12
CUGUAGCAAUAUUACGCAUC | -3.45 ± 0.32 | -2.69 ± 0.34
CUGUAGCAAUAUUACGCCCA | -1.79 ± 0.28 | -2.56 ± 0.27
CUGUAGCAAUAUUACGCCCG | -0.124 ± 0.26 | -0.221 ± 0.31

Sequence | self-splicing fitness (ln) (30 °C) | self-splicing fitness (ln) (37 °C)
CUGUAGCAAUAUUACGCGCG | -0.982 ± 0.12 | -0.117 ± 0.14
CUGUAGCAAUAUUACGCGGA | -2.92 ± 0.23 | -2.91 ± 0.24
CUGUAGCAAUAUUACGGAGU | -3.65 ± 0.23 | -2.74 ± 0.24
CUGUAGCAAUAUUACGGAUA | -2.3 ± 0.28 | -2.22 ± 0.33
CUGUAGCAAUAUUACGGCAU | -3.45 ± 0.31 | -1.86 ± 0.27
CUGUAGCAAUAUUACGGCGG | -2.82 ± 0.27 | -1.93 ± 0.32
CUGUAGCAAUAUUACGGUUG | -0.904 ± 0.081 | -0.833 ± 0.087
CUGUAGCAAUAUUACGUACC |  | -0.725 ± 0.38
CUGUAGCAAUAUUACGUCGU | -2.99 ± 0.31 | -1.8 ± 0.28
CUGUAGCAAUAUUACGUCUC | -4.07 ± 0.39 | 
CUGUAGCAAUAUUACGUGAA |  | -2.71 ± 0.29
CUGUAGCAAUAUUACGUGUC | -2.97 ± 0.27 | -1.29 ± 0.17
CUGUAGCAAUAUUACGUUCU | -3.72 ± 0.34 | -2.94 ± 0.4
CUGUAGCAAUAUUACGUUUG | -1.44 ± 0.085 | -0.284 ± 0.1
CUUAAGCAAUAUUACGACAG | 0.325 ± 0.096 | -0.266 ± 0.12
CUUAAGCAAUAUUACGACGU | -2.75 ± 0.16 | -1.44 ± 0.15
CUUAAGCAAUAUUACGAGGA | -2.64 ± 0.34 | -3.43 ± 0.46
CUUAAGCAAUAUUACGAGGG | -2.95 ± 0.21 | -2.85 ± 0.29
CUUAAGCAAUAUUACGAGUU |  | -2.42 ± 0.36
CUUAAGCAAUAUUACGAUUG | -1.68 ± 0.12 | -1.11 ± 0.13
CUUAAGCAAUAUUACGCAUG | -2.35 ± 0.12 | -1.5 ± 0.13
CUUAAGCAAUAUUACGCCUG | -2.06 ± 0.1 | -0.858 ± 0.089
CUUAAGCAAUAUUACGCGGA | -1.74 ± 0.25 | -2.58 ± 0.44
CUUAAGCAAUAUUACGGAUA | -1.88 ± 0.36 | 
CUUAAGCAAUAUUACGGCUA | -2.73 ± 0.45 | 
CUUAAGCAAUAUUACGGCUG | -1.38 ± 0.13 | -1.07 ± 0.17

Sequence | self-splicing fitness (ln) (30 °C) | self-splicing fitness (ln) (37 °C)
CUUAAGCAAUAUUACGGGUG | -0.609 ± 0.049 | 0.489 ± 0.07
CUUAAGCAAUAUUACGUAUU | -4.4 ± 0.31 | -2.25 ± 0.23
CUUAAGCAAUAUUACGUGAA | -2.87 ± 0.12 | -2.55 ± 0.29
CUUAAGCAAUAUUACGUGGA | -3.7 ± 0.18 | -3.42 ± 0.16
CUUAAGCAAUAUUACGUGGU | -4 ± 0.21 | -2.35 ± 0.2
CUUAAGCAAUAUUACGUGUA | -3.17 ± 0.14 | -2.64 ± 0.17
CUUAAGCAAUAUUACGUUAC | -2.2 ± 0.19 | -2.67 ± 0.34
CUUAAGCAAUAUUACGUUUA | -2.81 ± 0.18 | -2.6 ± 0.24
CUUCAGCAAUAUUACGAAGA | -3.72 ± 0.4 | -2.33 ± 0.21
CUUCAGCAAUAUUACGAUAG | -0.458 ± 0.07 | -0.818 ± 0.1
CUUCAGCAAUAUUACGAUCA |  | -1.38 ± 0.32
CUUCAGCAAUAUUACGAUCG | -0.136 ± 0.044 | 0.234 ± 0.069
CUUCAGCAAUAUUACGCAAU | -4.04 ± 0.37 | -2.04 ± 0.3
CUUCAGCAAUAUUACGCCCA | -1.53 ± 0.31 | -0.354 ± 0.26
CUUCAGCAAUAUUACGCCCG | -0.156 ± 0.12 | -0.17 ± 0.15
CUUCAGCAAUAUUACGCCGA |  | -2.47 ± 0.31
CUUCAGCAAUAUUACGCCUA |  | -2.38 ± 0.32
CUUCAGCAAUAUUACGCGAG | -3.15 ± 0.2 | -1.91 ± 0.2
CUUCAGCAAUAUUACGCGGU | -2.21 ± 0.096 | -0.649 ± 0.095
CUUCAGCAAUAUUACGGCAA | -2.87 ± 0.48 | -1.92 ± 0.41
CUUCAGCAAUAUUACGGCGC | -3.07 ± 0.13 | -3.29 ± 0.19
CUUCAGCAAUAUUACGGCUU | -3.25 ± 0.16 | -3.2 ± 0.26
CUUCAGCAAUAUUACGGGCU | -3.81 ± 0.27 | -2.83 ± 0.31
CUUCAGCAAUAUUACGUAAU | -2.76 ± 0.13 | -0.639 ± 0.1
CUUCAGCAAUAUUACGUACC | -2.36 ± 0.3 | -2.12 ± 0.24
CUUCAGCAAUAUUACGUCUU | -3.19 ± 0.16 | -3.67 ± 0.42

Sequence | self-splicing fitness (ln) (30 °C) | self-splicing fitness (ln) (37 °C)
CUUCAGCAAUAUUACGUUAU | -3.2 ± 0.26 | -2.14 ± 0.28
CUUCAGCAAUAUUACGUUGA | -3.08 ± 0.25 | -2.85 ± 0.24
CUUCAGCAAUAUUACGUUUG | -1.87 ± 0.082 | -1.24 ± 0.091
CUUGAGCAAUAUUACGACAA |  | -2.84 ± 0.49
CUUGAGCAAUAUUACGACGG | -1.97 ± 0.2 | -1.52 ± 0.26
CUUGAGCAAUAUUACGCAAU | -3.44 ± 0.32 | -2.77 ± 0.38
CUUGAGCAAUAUUACGCAGC | -2.02 ± 0.3 | -0.712 ± 0.28
CUUGAGCAAUAUUACGCAUA | -3.01 ± 0.36 | 
CUUGAGCAAUAUUACGCCAA | -3.52 ± 0.25 | -2.09 ± 0.32
CUUGAGCAAUAUUACGGGGC | -3.82 ± 0.2 | -0.729 ± 0.17
CUUGAGCAAUAUUACGGGGU | -3.14 ± 0.17 | -3.37 ± 0.27
CUUGAGCAAUAUUACGUACU | -4.15 ± 0.42 | -3.49 ± 0.39
CUUGAGCAAUAUUACGUAGG | -1.79 ± 0.15 | -0.65 ± 0.15
CUUGAGCAAUAUUACGUCAA | -3.45 ± 0.21 | -2.19 ± 0.23
CUUGAGCAAUAUUACGUCGA | -1.25 ± 0.24 | 
CUUGAGCAAUAUUACGUGAU | -4.13 ± 0.21 | -1.96 ± 0.15
CUUGAGCAAUAUUACGUGGG | -3.3 ± 0.38 | -3.17 ± 0.27
CUUUAGCAAUAUUACGAACG | 0.602 ± 0.16 | 0.157 ± 0.19
CUUUAGCAAUAUUACGAAUA | -3.48 ± 0.48 | 
CUUUAGCAAUAUUACGAAUG | 0.423 ± 0.14 | -0.306 ± 0.17
CUUUAGCAAUAUUACGAGUA | -2.85 ± 0.22 | -3.63 ± 0.42
CUUUAGCAAUAUUACGAUUU | -2.66 ± 0.18 | -2.72 ± 0.3
CUUUAGCAAUAUUACGCCUG | -0.484 ± 0.11 | -0.204 ± 0.14

From the supplement of paper PMC7877785
